Reference: patent US20240301052A1 (LANOVA MEDICINES DEVELOPMENT, published 2024)

T1: human SLC34A2 (human, UniProt O95436 1-690)
T1 construct: whole, on cells; also called human solute carrier 34 A2; NaPi2b
T1 sequence (looked up): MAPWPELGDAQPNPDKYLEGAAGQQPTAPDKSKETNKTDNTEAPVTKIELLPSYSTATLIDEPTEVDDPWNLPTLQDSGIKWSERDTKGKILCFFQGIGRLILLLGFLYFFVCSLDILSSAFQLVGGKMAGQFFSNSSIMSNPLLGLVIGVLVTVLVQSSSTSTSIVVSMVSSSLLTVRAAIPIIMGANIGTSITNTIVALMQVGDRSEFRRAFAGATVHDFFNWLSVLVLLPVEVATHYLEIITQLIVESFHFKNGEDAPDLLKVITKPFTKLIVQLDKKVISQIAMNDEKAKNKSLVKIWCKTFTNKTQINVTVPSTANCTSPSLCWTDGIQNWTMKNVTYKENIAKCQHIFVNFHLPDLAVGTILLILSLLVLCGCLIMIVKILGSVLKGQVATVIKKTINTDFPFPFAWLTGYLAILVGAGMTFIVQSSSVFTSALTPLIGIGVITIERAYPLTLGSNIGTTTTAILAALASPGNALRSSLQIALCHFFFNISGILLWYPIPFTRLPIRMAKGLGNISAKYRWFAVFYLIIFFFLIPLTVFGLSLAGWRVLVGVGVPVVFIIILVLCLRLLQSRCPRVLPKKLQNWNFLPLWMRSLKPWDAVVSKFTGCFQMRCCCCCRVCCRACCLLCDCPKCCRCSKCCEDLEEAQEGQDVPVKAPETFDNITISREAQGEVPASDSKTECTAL

T2: Rhesus SLC34A2 (Rhesus, UniProt F7HDA3 1-690)
T2 construct: whole, on cells
T2 sequence: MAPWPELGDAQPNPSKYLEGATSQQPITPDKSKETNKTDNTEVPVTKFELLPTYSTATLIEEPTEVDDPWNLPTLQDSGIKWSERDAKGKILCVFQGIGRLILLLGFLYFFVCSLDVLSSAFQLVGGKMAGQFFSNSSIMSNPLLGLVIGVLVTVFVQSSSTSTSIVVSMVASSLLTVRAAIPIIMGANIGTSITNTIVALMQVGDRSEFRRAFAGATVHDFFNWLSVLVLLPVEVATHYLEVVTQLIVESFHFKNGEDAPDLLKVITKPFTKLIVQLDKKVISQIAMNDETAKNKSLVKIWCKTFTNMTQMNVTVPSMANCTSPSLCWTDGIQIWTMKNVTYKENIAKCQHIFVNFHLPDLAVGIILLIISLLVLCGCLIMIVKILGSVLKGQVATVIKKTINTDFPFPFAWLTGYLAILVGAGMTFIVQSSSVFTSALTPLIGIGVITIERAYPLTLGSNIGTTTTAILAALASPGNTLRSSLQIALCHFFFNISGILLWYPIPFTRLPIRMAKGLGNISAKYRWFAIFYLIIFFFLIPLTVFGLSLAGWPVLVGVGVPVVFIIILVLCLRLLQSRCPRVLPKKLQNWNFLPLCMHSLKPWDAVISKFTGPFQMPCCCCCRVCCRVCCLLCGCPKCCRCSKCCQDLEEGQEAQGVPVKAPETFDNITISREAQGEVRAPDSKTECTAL


Assays:
[1] = target: T1, human SLC34A2; test: FACS, RMG-1 cells
In short: (§1)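 Cell-surface binding by flow cytometry: hu Abs on SLC34A2-expressing cells, 60 min at 4° C.; 2× FACS buffer wash; fluorescent-conjugated secondary 30 min at 4° C.; 2× wash, then acquisition.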

[2] = target: T1, human SLC34A2; test: FACS, OVCAR3 cells
In short: as §1

[3] = target: T1, human SLC34A2; test: FACS, OVCAR3 cells; remark: listed apart in the source
[4] = target: T1, human SLC34A2; test: FACS, MDAH2774 cells
[5] = target: T1, human SLC34A2; test: cell-based or functional assay
[6] = target: T1, human SLC34A2; test: FACS, HEK293/human SLC34A2 cells
In short: as §1

[7] = target: T1, human SLC34A2; test: FACS, HEK293/human SLC34A2 cells; remark: listed apart in the source
[8] = target: T2, Rhesus SLC34A2; test: FACS, HEK293/Rhesus SLC34A2 cells

EC50 [1] [nM]	Top [1] [MFI]	EC50 [2] [nM]	EC50 [3] [nM]	EC50 [4] [nM]	ADCC reporter EC50 [5] [nM]	ADCC reporter Top (MFI) [5] [MFI]	EC50 [6] [nM]	Top [6] [MFI]	EC50 [7] [nM]	EC50 [8] [nM]	Top (MFI) [8] [MFI]	Top [2] [MFI]	Binder
1.39	10900	0.94	0.9	1.28	0.72	135000	1.55	35200	2.4	0.7	16000		30H9B8F9.p1.z5 hIgG1 (antibody, V domains shown, humanized hIgG1) VH: QVQLVQSGAEVKKPGASVKVSCKTSGYTFTTNNMHWVRQAPGQGLEWIGAIYPGSGATAYNQKFKGRVTMTADTSTSTVYMELSSLRSEDTAVYYCARGMYGHGAMDYWGQGTLVTVSS VL: DIQLTQSPSFLSASVGDRVTITCKASQDVGTAVAWYQQKPGKAPKLLIYWATTRHSGVPSRFSGSGSGTEFTLTISSLQPEDFATYYCQQYSSNPLTFGQGTKLEIK
2.25	9720	2.41	2.4	2.06	2.12	124000	1.67	37400	2.72	4.2	9500	20500	91C9F1.p1.z7 hIgG1 (antibody, V domains shown, humanized hIgG1) VH: QVQLVQSGAEVKKPGSSVKVSCKTSGFFFTEYIIHWVRQAPGQGLEWIGGIIPNNDVTNYKQNFRGRVTLTADKSTSTAYMELSSLRSEDTAVYYCARWRNAYYSAMDSWGQGTTVTVSS VL: DIQVTQSPSSLSTSVGDRVTITCTASQDVGTAVAWYQQKPGKSPKLLIYWASTRHTGVPERFTGSGSGTDFTLTISSVQPEDVATYFCQQYRTSPLTFGVGTKVEIK
